{
  "source": "paper PMC4764562",
  "about": "“The Sec7 N-terminal regulatory domains facilitate membrane-proximal activation of the Arf1 GTPase” (eLife, 2016)",
  "key": {"[1]": {"target": "construct corresponding to a predicted coiled-coil from the HDS4 domain of Sec7", "assay": "SEC-MALS; 5 mg/ml, Wyatt WTC-050S5 gel filtration column with DAWN HELEOS-II and Optilab T-rEX detectors, room temperature; measured mass compared with that predicted from the sequence"}, "[2]": {"target": "full-length T. terrestris Sec7 (T. terrestris)", "assay": "SEC-MALS; 5 mg/ml, Wyatt WTC-050S5 gel filtration column with DAWN HELEOS-II and Optilab T-rEX detectors, room temperature; measured mass compared with that predicted from the sequence"}, "[3]": {"target": "the molecule itself", "assay": "SEC-MALS; 5 mg/ml, Wyatt WTC-050S5 gel filtration column with DAWN HELEOS-II and Optilab T-rEX detectors, room temperature; measured mass compared with that predicted from the sequence"}, "GST-Arf1": {"target": "T1, GST-Arf1 (Saccharomyces cerevisiae (strain ATCC …, UniProt P11076))", "T1 chain": "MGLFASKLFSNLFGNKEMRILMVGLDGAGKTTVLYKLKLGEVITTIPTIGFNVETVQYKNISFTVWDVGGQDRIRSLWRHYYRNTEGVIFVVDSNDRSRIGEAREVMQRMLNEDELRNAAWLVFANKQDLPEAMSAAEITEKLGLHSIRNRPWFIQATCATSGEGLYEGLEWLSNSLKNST", "assay": "GST pulldown (also liposome pelleting); Arf1 loaded with GMPPNP or GDP; no stable nucleotide-dependent interaction seen (Arf1 is nevertheless a GEF substrate of Sec7ΔC)"}},
  "data": [
    {"molecule": "construct corresponding to a predicted coiled-coil from the HDS4 domain of Sec7 (domain or fragment)", "values": [
      {"measurement": "stoichiometry N", "setting": "[1]", "value": 2}
    ]},
    {"molecule": "full-length T. terrestris Sec7 (natural protein)", "values": [
      {"measurement": "stoichiometry N", "setting": "[2]", "value": 2}
    ]},
    {"molecule": "S. cerevisiae Sec7f (residues 203-2009) (domain or fragment, UniProt P11075 203-2009, looked up, Sec7 (Arf-GEF) of S. cerevisiae, residues 203-2009; source: E. coli, purified (Ni-NTA, MonoQ, Superdex 200)) PRSTHTRNISLSSNGSNTNSTIILVKTTLETILNDKDIKKNSNAQKAIERTLQKFKEFDPQTTNNPHYVDSILVFEALRASCRTKSSKVQSLALDCLSKLFSFRSLDETLLVNPPDSLASNDQRQDAADGITPPPKQKIIDAAIDTISDCFQGEGTDDRVELQIVRALSSCILEEDSSSLCHGASLLKAIRTIYNVFVFSLNPSNQGIAQATLTQIISSVYDKIDLKQSTSSAVSLSTKNHQQQSAIELSEASENAETPAPLTLENMDKLNDDEERLMDAQQPDSIAITNQDLAVKDAFLVFRVMAKICAKPLETELDMRSHAVRSKLLSLHIIYSIIKDHIDVFLSHNIFLPGKERVCFIDSIRQYLRLVLSRNAASPLAPVFEVTLEIMWLLIANLRADFVKEIPVFLTEIYFPISELTTSTSQQKRYFLSVIQRICNDPRTLVEFYLNYDCNPGMPNVMEITVDYLTRLALTRVEITQTQRSYYDEQISKSLSTYNFSQLPLLTSSNLSSSPDVGQVNLLFPLDFALKMVSLNCIVSVLRSLSSWAHKALNPNTHTANKVLLNTTSSARQESRSSLSNDVRSSIMTSNDDFKPTYEDEESRSLSSQNIDADDPTQFENLKLRKTALSECIAIFNNKPKKAIPVLIKKGFLKDDSPISIAKWLLETEGLDMAAVGDYLGEGDDKNIAIMHAFVDEFDFTGMSIVDALRSFLQSFRLPGEGQKIDRFMLKFAERFVDQNPGVFSKADTAYVLSYSLIMLNTDLHSSQIKNKMSLQEFLENNEGIDNGRDLPRDFLEGLFNEIANNEIKLISEQHQAMLSGDTNLVQQQQSAFNFFNSRDLTREAYNQVSKEISSKTELVFKNLNKNKGGPDVYYAASHVEHVKSIFETLWMSFLAALTPPFKDYDDIDTTNKCLEGLKISIKIASTFRINDARTSFVGALVQFCNLQNLEEIKVKNVNAMVILLEVALSEGNYLEGSWKDILLVVSQMERLQLISKGIDRDTVPDVAQARVANPRVSYESSRSNNTSFFDVWGKKATPTELAQEKHHNQTLSPEISKFISSSELVVLMDNIFTKSSELSGNAIVDFIKALTAVSLEEIESSENASTPRMFSLQKMVDVCYYNMDRIKLEWTPLWAVMGKAFNKIATNSNLAVVFFAIDSLRQLSMRFLDIEELSGFEFQHDFLKPFEYTVQNSGNTEVQEMIIECFRNFILTKSESIKSGWKPILESLQYTARSSTESIVLKTQLLVSNDIVTNHFENVFSQEDAFSELVGVFREITKNKRFQKLSLHALESLRKMTQNVADICFYNENKTEEERKHNDALLRGKDIFQDVWFPMLFCFNDTIMTAEDLEVRSRALNYMFDALVAYGGKFNDDFWEKICKKLLFPIFGVLSKHWEVNQFNSHDDLSVWLSTTLIQALRNLIALFTHYFESLNRMLDGFLGLLVSCICQENDTIARIGRSCLQQLILQNVSKFNEYHWNQIGDVFDKLFDLTTANELFDYDPLQQGRKSSVSHHQTTNDTSQHSDDDSNDRRENDSNISETVERAHQEESSEDVGGDMVETLNGQTKLNNGNSVPTVKDELNPKPASLSIPKKTKHMKRNESNEDIRRRINIKNSIVVKCVLQLLMIELLNELFENEDFAHCIPYKEAIRITRLLEKSYEFSRDFNEDYGLRTRLVEARVVDKIPNLLKQETSAAAVLLDIMFQLYLNDDEKKADLITRLITICIQVVEGYVSLDDRTMERSINAWRSVIVEILQGYYEFDDEDFRLYCPAMYALVIQILDKSVPTELRHAIKQFLSRVGELYLSTD", "values": [
      {"measurement": "stoichiometry N", "setting": "[3]", "value": 2}
    ]},
    {"molecule": "S. cerevisiae Gea2 full-length (natural protein, UniProt P39993 1-1459, looked up, Gea2, early-Golgi Arf-GEF of S. cerevisiae, full length) MSDREFVTVDPVTIIIKECINLSTAMRKYSKFTSQSGVAALLGGGSEIFSNQDDYLAHTFNNLNTNKHNDPFLSGFIQLRLMLNKLKNLDNIDSLTILQPFLLIVSTSSISGYITSLALDSLQKFFTLNIINESSQNYIGAHRATVNALTHCRFEGSQQLSDDSVLLKVVFLLRSIVDSPYGDLLSNSIIYDVLQTILSLACNNRRSEVLRNAAQSTMIAVTVKIFSKLKTIEPVNVNQIYINDESYTNDVLKADTIGTNVESKEEGSQEDPIGMKVNNEEAISEDDGIEEEHIHSEKSTNGAEQLDIVQKTTRSNSRIQAYADDNYGLPVVRQYLNLLLSLIAPENELKHSYSTRIFGLELIQTALEISGDRLQLYPRLFTLISDPIFKSILFIIQNTTKLSLLQATLQLFTTLVVILGNNLQLQIELTLTRIFSILLDDGTANNSSSENKNKPSIIKELLIEQISILWTRSPSFFTSTFINFDCNLDRADVSINFLKALTKLALPESALTTTESVPPICLEGLVSLVDDMFDHMKDIDREEFGRQKNEMEILKKRDRKTEFIECTNAFNEKPKKGIPMLIEKGFIASDSDKDIAEFLFNNNNRMNKKTIGLLLCHPDKVSLLNEYIRLFDFSGLRVDEAIRILLTKFRLPGESQQIERIIEAFSSAYCENQDYDPSKISDNAEDDISTVQPDADSVFILSYSIIMLNTDLHNPQVKEHMSFEDYSGNLKGCCNHKDFPFWYLDRIYCSIRDKEIVMPEEHHGNEKWFEDAWNNLISSTTVITEIKKDTQSVMDKLTPLELLNFDRAIFKQVGPSIVSTLFNIYVVASDDHISTRMITSLDKCSYISAFFDFKDLFNDILNSIAKGTTLINSSHDDELSTLAFEYGPMPLVQIKFEDTNTEIPVSTDAVRFGRSFKGQLNTVVFFRIIRRNKDPKIFSKELWLNIVNIILTLYEDLILSPDIFPDLQKRLKLSNLPKPSPEISINKSKESKGLLSTFASYLKGDEEPTEEEIKSSKKAMECIKSSNIAASVFGNESNITADLIKTLLDSAKTEKNADNSRYFEAELLFIIELTIALFLFCKEEKELGKFILQKVFQLSHTKGLTKRTVRRMLTYKILLISLCADQTEYLSKLINDELLKKGDIFTQKFFATNQGKEFLKRLFSLTESEFYRGFLLGNENFWKFLRKVTAMKEQSESIFEYLNESIKTDSNILTNENFMWVLGLLDEISSMGAVGNHWEIEYKKLTESGHKIDKENPYKKSIELSLKSIQLTSHLLEDNNDLRKNEIFAIIQALAHQCINPCKQISEFAVVTLEQTLINKIEIPTNEMESVEELIEGGLLPLLNSSETQEDQKILISSILTIISNVYLHYLKLGKTSNETFLKILSIFNKFVEDSDIEKKLQQLILDKKSIEKGNGSSSHGSAHEQTPESNDVEIEATAPIDDNTDDDNKPKLSDVEKD", "values": [
      {"measurement": "stoichiometry N", "setting": "[3]", "value": 2}
    ]},
    {"molecule": "S. cerevisiae Sec7 DCB/HUS domain construct (domain or fragment) PRSTHTRNISLSSNGSNTNSTIILVKTTLETILNDKDIKKNSNAQKAIERTLQKFKEFDPQTTNNPHYVDSILVFEALRASCRTKSSKVQSLALDCLSKLFSFRSLDETLLVNPPDSLASNDQRQDAADGITPPPKQKIIDAAIDTISDCFQGEGTDDRVELQIVRALSSCILEEDSSSLCHGASLLKAIRTIYNVFVFSLNPSNQGIAQATLTQIISSVYDKIDLKQSTSSAVSLSTKNHQQQSAIELSEASENAETPAPLTLENMDKLNDDEERLMDAQQPDSIAITNQDLAVKDAFLVFRVMAKICAKPLETELDMRSHAVRSKLLSLHIIYSIIKDHIDVFLSHNIFLPGKERVCFIDSIRQYLRLVLSRNAASPLAPVFEVTLEIMWLLIANLRADFVKEIPVFLTEIYFPISELTTSTSQQKRYFLSVIQRICNDPRTLVEFYLNYDCNPGMPNVMEITVDYLTRLALTRVEITQTQRSYYDEQISKSLSTYNFSQLPLLTSSNLSSSPDVGQVNLLFPLDFALKMVSLNCIVSVLRSLSSWAHKALNPNTHTANKVLLNTTSSARQESRSSLSNDVRSSIMTSNDDFKPTYEDEESRSLSSQNIDADDPTQFEN", "values": [
      {"measurement": "stoichiometry N", "setting": "[3]", "value": 2}
    ]},
    {"molecule": "S. cerevisiae Sec7ΔC (residues 203-1017) (domain or fragment, UniProt P11075 203-1017, looked up, Sec7 of S. cerevisiae, residues 203-1017 (DCB/HUS and GEF domains); also called Sec7(203-1017); construct lacking the HDS1-4 domains with the GEF domain; source: E. coli, purified (Ni-NTA, MonoQ, Superdex 200)) PRSTHTRNISLSSNGSNTNSTIILVKTTLETILNDKDIKKNSNAQKAIERTLQKFKEFDPQTTNNPHYVDSILVFEALRASCRTKSSKVQSLALDCLSKLFSFRSLDETLLVNPPDSLASNDQRQDAADGITPPPKQKIIDAAIDTISDCFQGEGTDDRVELQIVRALSSCILEEDSSSLCHGASLLKAIRTIYNVFVFSLNPSNQGIAQATLTQIISSVYDKIDLKQSTSSAVSLSTKNHQQQSAIELSEASENAETPAPLTLENMDKLNDDEERLMDAQQPDSIAITNQDLAVKDAFLVFRVMAKICAKPLETELDMRSHAVRSKLLSLHIIYSIIKDHIDVFLSHNIFLPGKERVCFIDSIRQYLRLVLSRNAASPLAPVFEVTLEIMWLLIANLRADFVKEIPVFLTEIYFPISELTTSTSQQKRYFLSVIQRICNDPRTLVEFYLNYDCNPGMPNVMEITVDYLTRLALTRVEITQTQRSYYDEQISKSLSTYNFSQLPLLTSSNLSSSPDVGQVNLLFPLDFALKMVSLNCIVSVLRSLSSWAHKALNPNTHTANKVLLNTTSSARQESRSSLSNDVRSSIMTSNDDFKPTYEDEESRSLSSQNIDADDPTQFENLKLRKTALSECIAIFNNKPKKAIPVLIKKGFLKDDSPISIAKWLLETEGLDMAAVGDYLGEGDDKNIAIMHAFVDEFDFTGMSIVDALRSFLQSFRLPGEGQKIDRFMLKFAERFVDQNPGVFSKADTAYVLSYSLIMLNTDLHSSQIKNKMSLQEFLENNEGIDNGRDLPRDFLEGLFNEIANNEIKLISEQH", "values": [
      {"measurement": "binding result", "setting": "GST-Arf1", "value": "no binding"},
      {"measurement": "stoichiometry N", "setting": "[3]", "value": 2}
    ]}
  ]
}
